Each block holds one binder with its values, some of them ahead of it.
Assays:
Details in all cases: both partners purified
[1] = biological target: T1, Asf1-HA-MBP (full-length Drosophila Asf1) (Drosophila melanogaster, UniProt Q9V464 1-218); assay: co-IP; Myc-trap: purified Asf1-HA-MBP or Su(H)-GST mixed 1:1 with NTCTmyc-MBP peptides, about 10 min at 4 °C, 150 mM NaCl, 50 mM Tris pH7.5, 0.1% SDS; Myc-tagged H peptides trapped on anti-Myc nanobody magnetic beads 1 h at 4 °C; Western blot with anti-Myc, anti-HA, anti-GST
T1 construct: Anti-silencing factor 1 (Asf1), Drosophila melanogaster, full length; HA-tagged region derived by PCR from the pJG4-5 construct; also called Asf-HA; HA-tagged Asf1; source: E. coli UT580, purified (amylose beads); not shown: HA, N-terminal, kept
T1 sequence (looked up): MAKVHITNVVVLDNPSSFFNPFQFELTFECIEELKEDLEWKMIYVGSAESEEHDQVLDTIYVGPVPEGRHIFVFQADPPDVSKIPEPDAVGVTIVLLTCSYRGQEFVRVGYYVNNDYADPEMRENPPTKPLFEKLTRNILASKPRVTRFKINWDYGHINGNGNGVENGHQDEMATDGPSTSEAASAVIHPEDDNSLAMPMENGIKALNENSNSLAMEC

[2] = biological target: T2, Asf1 (1–154) (D. melanogaster, UniProt Q9V464 1-154); assay: ITC; MicroCal VP-ITC, 25 °C, 20 mM HEPES pH 7.5, 150 mM NaCl; typically 100 μM Hairless in the syringe and 10 μM Asf1 in the cell; one-site binding model
T2 construct: Anti-silencing factor 1 (Asf1), D. melanogaster, amino acids 1-154; modified pET-14p construct
T2 sequence (looked up): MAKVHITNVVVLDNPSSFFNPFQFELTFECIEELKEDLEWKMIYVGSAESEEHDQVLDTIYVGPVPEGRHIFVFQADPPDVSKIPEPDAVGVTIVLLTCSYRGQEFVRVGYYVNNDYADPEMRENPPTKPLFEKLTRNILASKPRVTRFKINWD

[3] = biological target: T3, Su(H)-GST fusion protein (Su(H) codons 288–594) (Drosophila melanogaster, UniProt P28159 288-594); assay: co-IP; Myc-trap: purified Asf1-HA-MBP or Su(H)-GST mixed 1:1 with NTCTmyc-MBP peptides, about 10 min at 4 °C, 150 mM NaCl, 50 mM Tris pH7.5, 0.1% SDS; Myc-tagged H peptides trapped on anti-Myc nanobody magnetic beads 1 h at 4 °C; Western blot with anti-Myc, anti-HA, anti-GST
T3 construct: also called GST Su(H); GST-tagged Su(H); source: E. coli UT580, purified (glutathione-sepharose 4B)
T3 sequence (P28159 288-594): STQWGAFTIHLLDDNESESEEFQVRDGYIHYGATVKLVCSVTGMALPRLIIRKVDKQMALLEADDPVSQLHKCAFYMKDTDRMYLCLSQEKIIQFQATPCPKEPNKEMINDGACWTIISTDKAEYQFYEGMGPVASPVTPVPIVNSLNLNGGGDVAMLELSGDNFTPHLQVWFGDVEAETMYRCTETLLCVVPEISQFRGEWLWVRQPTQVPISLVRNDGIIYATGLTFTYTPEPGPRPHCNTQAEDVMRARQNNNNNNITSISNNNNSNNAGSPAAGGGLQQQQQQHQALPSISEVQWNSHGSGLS

[4] = biological target: T2, Asf1 (1–154); assay: ITC; MicroCal VP-ITC, 25 °C, 20 mM HEPES pH 7.5, 150 mM NaCl; typically 100 μM Hairless in the syringe and 10 μM Asf1 in the cell; one-site binding model; remark: listed apart in the source

binding result [1]: binds
B1: Hairless 315–369 myc-MBP (domain or fragment, Drosophila melanogaster, UniProt Q02308 315-369, looked up)
chain: PWKQSRPRRGISKELSLFFHRPRNSTLGRAALRTAARKRRRPHEPLTTSEDQQPI
notes: Hairless (H), Drosophila melanogaster, residues 315-369; also called aa 315–369; source: E. coli UT580, purified (amylose beads); not shown: Myc, N-terminal, kept

Ka [2]: 680000 M⁻¹
Kd [2]: 1700 nM
dH [2]: -8.7 kcal/mol
B2: H (315–358) (domain or fragment, Drosophila melanogaster, UniProt Q02308 315-358, looked up)
chain: PWKQSRPRRGISKELSLFFHRPRNSTLGRAALRTAARKRRRPHE
notes: Hairless (H), Drosophila, residues 315-358; His-SUMO fusion from a modified pET-28b+ vector; also called Hairless 315–358

binding result [1]: binds
binding result [3]: binds
B3: NTCTmyc-MBP (Hairless Ser 212 - Ile 369) (domain or fragment, Drosophila melanogaster, UniProt Q02308 212-369, looked up)
chain: SFDMGRTPISTHGNNSWGGYGGRLQFFKDGKFILELARSKDGDKSGWVSVTRKTFRPPSAATSATVTPTSAVTTAYPKNENSTSLSFSDDNSSIQSSPWQRDQPWKQSRPRRGISKELSLFFHRPRNSTLGRAALRTAARKRRRPHEPLTTSEDQQPI
notes: Hairless (H), Drosophila melanogaster, NTCT region Ser 212 - Ile 369; source: E. coli UT580, purified (amylose beads); not shown: Myc, N-terminal, kept

Ka [2]: 250000 M⁻¹
Kd [2]: 4200 nM
dH [2]: -8.6 kcal/mol
stoichiometry N [4]: 1
B4: H (232–358) (domain or fragment, Drosophila melanogaster, UniProt Q02308 232-358, looked up)
chain: GGRLQFFKDGKFILELARSKDGDKSGWVSVTRKTFRPPSAATSATVTPTSAVTTAYPKNENSTSLSFSDDNSSIQSSPWQRDQPWKQSRPRRGISKELSLFFHRPRNSTLGRAALRTAARKRRRPHE
notes: Hairless (H), Drosophila, residues 232-358; His-SUMO fusion from a modified pET-28b+ vector; also called Hairless 232–358
